Measurements as given in the RNAGym collection of RNA variant scans (doi:10.7554/elife.80360).

B1: Hammerhead Ribozyme (parent)
chain: ACCGGAUGUGCUUUCCGGUCUGAUGAGUCCGUGAGGACGAAACAG

Variants of: B1
Assay: self-cleavage, relative activity (ratio to wild type); higher = more cleavage; co-transcriptional

In order of rising self-cleavage:
1. ACCGGAUGUGCUUUCCGGUCUGCUGAGUACGUGAGGACGAAACAG [A23C C29A]  0.267
2. ACCGGAUGUGCUCUCCGGUCUGAUGAGUCCGUGAGGACGAAAGAG [U13C C43G]  0.278
3. ACCGGAUGUGCUUUCCGGUCUGAUCACUCCGUGAGGACGAAACAG [G25C G27C]  0.278
4. ACCGGAUGUGCUUUCCGGUCUGAUGAGUCCGUGAGCACGAAAGAG [G36C C43G]  0.286
5. ACCGGAUGUGCUUUCCGGUCUAAUGAGUCCGUGAGGUCGAAACAG [G22A A37U]  0.288
6. ACCGGAUGUGCUUACCGGUCUGAUCAGUCCGUGAGGACGAAACAG [U14A G25C]  0.288
7. ACCGGAGGUGCUUUCCGGUCUGAUGAGUCCGUGAGGACGGAACAG [U7G A40G]  0.291
8. AGCGGAUGUGCUUUCCGGUCUGAUGGGUCCGUGAGGACGAAACAG [C2G A26G]  0.292
9. ACCGGAUGUGCUUUCCGGUCUCAUGAGGCCGUGAGGACGAAACAG [G22C U28G]  0.293
10. ACCGGAUGUGCUUUCCGGUCUGAUGAGUCCGUGACGACGUAACAG [G35C A40U]  0.296
11. ACCGGAUGUGCUUUCCGGUGCGAUGAGUCCGUGAGGACGAAACAG [C20G U21C]  0.305
12. ACCUGAUGUGCUUUCCGGUCUGAUGAGUCCGUGAGGACGAAUCAG [G4U A42U]  0.307
13. ACCGGAUGUGCUCUCCGGUCUGAUGAGUCCGUGAGGACGAACCAG [U13C A42C]  0.313
14. ACCGGAUGUGCUUUCCUGUCUCAUGAGUCCGUGAGGACGAAACAG [G17U G22C]  0.314
15. ACCGGAUGUGCUUUCCGGGCUGAUGAGUCCGUGAGGACGUAACAG [U19G A40U]  0.323
16. ACCGGAUGUGCUUUCCGGUCUGAUGAGUUCGUGAGGACGAACCAG [C29U A42C]  0.326
17. ACCGGAUGUGCUUUCCGGUCUGAUGAUUCCGUGAGGACGACACAG [G27U A41C]  0.328
18. ACCGGAUCUGCUUUCCGGUCUGUUGAGUCCGUGAGGACGAAACAG [G8C A23U]  0.328
19. ACCGGAUGUGCUUUCCGGUCUGAUGAGUCCAUGAGGACGAAAAAG [G31A C43A]  0.329
20. ACCGGAUGUGAUUUCCGGUCUGAUUAGUCCGUGAGGACGAAACAG [C11A G25U]  0.329
21. ACCGGAUGUGCUUUCCGGUCUUAUGAGUCCGUGAGGACGUAACAG [G22U A40U]  0.332
22. ACCUGAUGUGCUUUCCGGGCUGAUGAGUCCGUGAGGACGAAACAG [G4U U19G]  0.343
23. ACCGGAUGUGCUUUCCGGUCUCAUGAGUCCGUGAGGACAAAACAG [G22C G39A]  0.364
24. AGCGGAUGAGCUUUCCGGUCUGAUGAGUCCGUGAGGACGAAACAG [C2G U9A]  0.367
25. ACCGGAUGUUCUUUCCGGUCUGAUCAGUCCGUGAGGACGAAACAG [G10U G25C]  0.375
26. ACCAGAUGUGCUUUCCGGUCUGAUGAGUCCGUGAAGACGAAACAG [G4A G35A]  0.386
27. ACCGGUUGUGCUUUCCGGUCUGAUGAUUCCGUGAGGACGAAACAG [A6U G27U]  0.395
28. ACCGGAUGUGCUUUCCUGCCUGAUGAGUCCGUGAGGACGAAACAG [G17U U19C]  0.397
29. ACCGGAUGUGCUUUCCGGUCUGAUGAGGCCGUGAGGACGAAACAA [U28G G45A]  0.418
30. UCGGGAUGUGCUUUCCGGUCUGAUGAGUCCGUGAGGACGAAACAG [A1U C3G]  0.418
31. ACCGGAUGUGCUUUCCAGUCUGAUGAGUCCGUGAGGACGAAAGAG [G17A C43G]  0.441
32. ACCGGUUGUGCUUUCCGGUCUGAUGAGUCCGUGAGGUCGAAACAG [A6U A37U]  0.451
33. ACCGGAUGUGCUUUCCUGUCUGAUGAGUCCGUGAUGACGAAACAG [G17U G35U]  0.454
34. ACCGGAUGUGCUUUCCGGUCUGAUGAGUUCGUGAGGACGAAAUAG [C29U C43U]  0.47
35. ACCGGAUGUGCUUUCGGGUCUGAUGAGUCCGUGAUGACGAAACAG [C16G G35U]  0.472
36. ACCGGAUGUGCUUUCCGGUAUGAUGAGUCCUUGAGGACGAAACAG [C20A G31U]  0.475
37. ACCGGAUGUGCUUUCAGGUCUGAUGAGUCCGUGAGGACGAAACUG [C16A A44U]  0.5
38. ACCGGAUGUGCUUUACGGUCUGAUGAGUCCGUGAGGAGGAAACAG [C15A C38G]  0.515
39. ACCGGAUGUGCUAUCCGGUCUGAUGAUUCCGUGAGGACGAAACAG [U13A G27U]  0.53
40. ACCGGAUGUGCUUUCCGGUCUGAUGAGCCCGUGACGACGAAACAG [U28C G35C]  0.534
41. ACCGGAUGUGCUUUCCCGUCUGAUGAGUUCGUGAGGACGAAACAG [G17C C29U]  0.542
42. ACCGGAUGUGCUUUCCGGUCUGAUGAGUCCGUCAGGACGCAACAG [G33C A40C]  0.566
43. ACCGGAUGUCCUUUACGGUCUGAUGAGUCCGUGAGGACGAAACAG [G10C C15A]  0.591
44. ACCGGGUGUGCUUUCCGGUCUGAAGAGUCCGUGAGGACGAAACAG [A6G U24A]  0.597
45. ACCGGAUGUGCUUUCCGGUCUGAGGAGUCCGUGAGGACGAAACUG [U24G A44U]  0.608
46. ACCGGAUGCGCUUUCCGGUCUGAUGAGUCCGUGAUGACGAAACAG [U9C G35U]  0.713
47. ACCGGAUGUGCUUUCCGGUCCGAUGAGUCCGUGAGGUCGAAACAG [U21C A37U]  0.72
48. ACCGGAUCUGCUUUCCUGUCUGAUGAGUCCGUGAGGACGAAACAG [G8C G17U]  0.752
49. ACCGGAUGUGCUUUUCGGUCUGAUGAGUCCGUGAGGACGAAACAA [C15U G45A]  0.842
50. ACCGGAUGUGCUUUCCGGUCUGAUGAGUCCGUGAGGAAGAAACGG [C38A A44G]  0.862
51. ACAGGAUGUACUUUCCGGUCUGAUGAGUCCGUGAGGACGAAACAG [C3A G10A]  0.897
52. ACCCGAUGUGCUUUGCGGUCUGAUGAGUCCGUGAGGACGAAACAG [G4C C15G]  0.929
53. ACCGGAUGUGCUUUCCGGUCUGAUGAGUCCAUGCGGACGAAACAG [G31A A34C]  0.991
54. ACCGGAUGUUCUUUCCGGUCUGAGGAGUCCGUGAGGACGAAACAG [G10U U24G]  1.16
55. ACCGGAUUUGCUUUCCGGUCUGAUGAGUCCCUGAGGACGAAACAG [G8U G31C]  1.18
56. ACCGGAUGUGCUCUCCGGUCUGAUGAGUCAGUGAGGACGAAACAG [U13C C30A]  1.54
57. ACCGGAUGUGCCUUCCGGUCUGAUGAGUCCGUGAGGACGAAACGG [U12C A44G]  1.6
